This data set deals with 6HisRsmA (RsmAxcc) (Xanthomonas citri subsp. citri strain 306) (UniProt Q8PLP9). Kind of data set: EMSA. As to conditions: 10 mM HEPES pH 7.3, 20 mM KCl, 1 mM MgCl2, 1 mM DTT, 5% glycerol, 0.1 µg/µL yeast tRNA, 20 U RNasin, 25 °C 20 min; 5% native PAGE. (A gel shift assay detects complexes by their altered migration in electrophoresis.)

This passage reports binding signal (fold less shift than hrpG 1-189) results from paper PMC3937308.

Chain of 6HisRsmA (RsmAxcc) (Xanthomonas citri subsp. citri strain 306) (Q8PLP9 whole entry): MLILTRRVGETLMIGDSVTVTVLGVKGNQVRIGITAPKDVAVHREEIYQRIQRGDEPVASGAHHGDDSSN

On to hrpG 54-189, for which the binding signal (fold less shift than hrpG 1-189) was 8.
